Source: article PMC2719252

Biological target: hexa-His-β6 bundlin (soluble, recombinant WT β6 bundlin) (enteropathogenic Escherichia coli (EPEC) strain RN587/1)
Assay: native MS

“hexa-His-β6 bundlin (soluble, recombinant WT β6 bundlin) (natural protein)” was tested, and the stoichiometry N was 2.
